{
  "source": "paper PMC6650482",
  "about": "“Tyrosine 51 residue of the syndecan-2 extracellular domain is involved in the interaction with and activation of pro-matrix metalloproteinase-7” (Scientific Reports, 2019)",
  "molecules": {"B1": {"name": "IL-1α: IL-1α was purchased from R&D Systems (protein, UniProt P01583 113-271, looked up)", "Interleukin-1 alpha": "SAPFSFLSNVKYNFMRIIKYEFILNDALNQSIIRANDQYLTAAALHNLDEAVKFDMGAYKSSKDDAKITVILRISKTQLYVTAQDEDQPVLLKEMPEIPKTITGSETNLLFFWETHGTKNYFTSVAHPNLFIATKQDYWVCLAGGPPSITDFQILENQA"}},
  "key": {"[1]": {"system": "MMP-7 in HT-29 cells", "assay": "MMP-7 expression on IL-1α treatment", "assay_type": "cell-based, human", "conditions": "1 ng/ml IL-1α, syndecan-2- and Y51A-expressing HT-29 cells", "method": "Figure 6 Tyrosine 51 of the syndecan-2 extracellular domain is involved in regulating pro-MMP-7 activation. (A) HT-29 cells were transiently transfected with 1 µg of vectors encoding SDC2 or the interaction-defective syndecan-2 mutant, Y51A, and the mRNA expression levels of SDC2 and MMP-7 were evaluated by RT-PCR (top). Conditioned media (CM) were collected and proteolytic activity was measured using quenched fluorescence peptide cleavage assay. The relative activity was normalized versus the fluorescence of a vector control (bottom). Data are shown as mean ± S.D. (n = 3), **p < 0.01 versus VEC or SDC2. (B) HT-29 cells were stably transfected with vectors encoding SDC2 or Y51A. The expression levels of the target mRNAs were analyzed by RT-PCR and quantitative real-time PCR (q-PCR) of three independent experiments was performed and normalized to GAPDH expression. Data are shown as mean ± S.D. (n = 3), *p < 0.05, **p < 0.01 versus VEC or SDC2 (left). […] CM were collected and proteolytic activity was measured using quenched fluorescence peptide cleavage assay (right bottom). […] The mRNA expression levels of SDC2 and MMP-7 were evaluated with RT-PCR (left top). CM were collected from the indicated cells and immunoblotted with an anti-MMP-7 antibody (left bottom) or subjected to quenched fluorescence peptide cleavage activity assay (right). […]"}, "[2]": {"system": "MMP-7 in HT-29 cells", "conditions": "cited from earlier work", "text": "Since syndecan-2 is known to mediate the activation of pro-MMP-7, we investigated how interrupting their interaction could affect syndecan-2-mediated MMP-7 activation. Firstly, we investigated whether the expression of syndecan-2 affects that of MMP-7."}},
  "data": [
    {"molecule": "B1", "values": [
      {"measurement": "MMP-7 expression", "setting": "[1]", "value": "upregulation of MMP-7"},
      {"measurement": "MMP-7 expression in colon cancer cells", "setting": "[2]", "value": "known to induce MMP-7 expression"}
    ]}
  ]
}
